Measured values taken from patent US20240376170A1 (BRIGHT PEAK THERAPEUTICS, published 2024).
Where two headings read alike, the source gives them in different places. Bridges are numbered along the chain shown (N, C = ends). Primed or numbered codes have the meaning given here. [ ]: non-standard residue; d: D form. Ygp(4) = Tyr with amino-capped PEG8 (O-(8x polyethylene glycol-amino)-tyrosine); Yn3(4) = Tyr with azide-capped PEG9 (O-(9x polyethylene glycol-azido)-tyrosine); Ygp = O-(8x polyethylene glycol-amino)-tyrosine (Tyr, amino-capped PEG8); Yn3 = O-(9x polyethylene glycol-azido)-tyrosine (Tyr, azide-capped PEG9); cleavable peptide‑PEG9‑glutaryl = not defined here; Ygp″ = O-(8x polyethylene glycol-amino)-tyrosine; Yn3″ = O-(9x polyethylene glycol-azido)-tyrosine; PEG4′ = 4x polyethylene glycol; PEG9′ = 9x polyethylene glycol; hSer = N[C@@H](CCO)C(=O)O; Nle = CCCC[C@H](N)C(=O)O

T1: IL-2 receptor βγ complex (human, UniProt P14784 27-551; P31785 23-369)
T1 sequence (looked up) 1: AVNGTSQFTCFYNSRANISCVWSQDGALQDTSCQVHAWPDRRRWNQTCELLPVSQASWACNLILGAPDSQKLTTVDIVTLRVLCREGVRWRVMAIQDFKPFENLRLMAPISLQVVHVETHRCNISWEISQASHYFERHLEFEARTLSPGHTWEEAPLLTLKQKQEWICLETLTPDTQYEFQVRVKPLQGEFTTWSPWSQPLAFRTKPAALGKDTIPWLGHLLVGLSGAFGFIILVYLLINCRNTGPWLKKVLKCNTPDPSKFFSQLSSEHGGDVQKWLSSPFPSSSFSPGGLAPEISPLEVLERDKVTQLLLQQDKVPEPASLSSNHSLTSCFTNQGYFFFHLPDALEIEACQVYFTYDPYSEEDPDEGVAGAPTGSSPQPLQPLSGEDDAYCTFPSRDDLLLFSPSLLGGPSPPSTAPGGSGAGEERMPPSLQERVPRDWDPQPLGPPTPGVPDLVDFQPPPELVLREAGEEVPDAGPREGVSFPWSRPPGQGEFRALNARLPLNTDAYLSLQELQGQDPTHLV
T1 sequence (looked up) 2: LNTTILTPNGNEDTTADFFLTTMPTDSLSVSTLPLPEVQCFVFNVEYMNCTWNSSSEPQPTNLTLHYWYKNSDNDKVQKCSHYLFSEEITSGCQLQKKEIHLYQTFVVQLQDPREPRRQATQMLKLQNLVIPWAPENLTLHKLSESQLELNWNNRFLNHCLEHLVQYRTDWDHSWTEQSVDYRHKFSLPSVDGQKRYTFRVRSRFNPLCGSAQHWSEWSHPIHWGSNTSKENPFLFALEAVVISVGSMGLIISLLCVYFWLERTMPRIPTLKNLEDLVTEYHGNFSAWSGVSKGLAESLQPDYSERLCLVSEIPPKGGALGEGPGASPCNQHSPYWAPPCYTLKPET


What was measured:
Experiment in all cases: cell-based or functional assay
IL-2 receptor βγ complex [1] = biological target: T1, IL-2 receptor βγ complex
IL-2 receptor βγ complex [2] = biological target: T1, IL-2 receptor βγ complex; remark: listed apart in the source
IL-2 receptor βγ complex [3] = biological target: T1, IL-2 receptor βγ complex; remark: listed apart in the source

Average EC50, pSTAT5 Assay (T cells) (IL-2 receptor βγ complex [1])	Average EC50, pSTAT5 Assay (T cells) (IL-2 receptor βγ complex [2])	Average EC50, pSTAT5 Assay in NK cells (IL-2 receptor βγ complex [3])	Binder
0.61 nM	–	–	CMP-164, MMP2 cleaved molecule (ligand, ends and bridges not checked; also: MMP2 cleaved, cleavage site and linker fragments on N-terminus and Lys23 side chain not given here) APTSSSTKKTQLQLEHLLLDLQKILNGINNYKNPKLTR[Nle]L[hSer][Yn3]KF[Ygp][Nle]PKKATELKHLQCLEEELKPLEEVL[hSer]LAQSKNFHLRPRDLISNINVIVLELKGSETTF[hSer]CEYADETATIVEFLNRWITFSQSIISTLT
31.4 nM	–	–	CMP-164 (ligand, bridge N-23; not fully specified (bridges); ends not checked; also: sequence of the cleavable peptide in the bridge not given here) APTSSSTKKTQLQLEHLLLDLQKILNGINNYKNPKLTR[Nle]L[hSer][Yn3]KF[Ygp][Nle]PKKATELKHLQCLEEELKPLEEVL[hSer]LAQSKNFHLRPRDLISNINVIVLELKGSETTF[hSer]CEYADETATIVEFLNRWITFSQSIISTLT
–	2.79 nM	–	CMP-162 (ligand, ends and bridges not checked; also: further groups not given here) APTSSSTKKTQLQLEHLLLDLQKILNGINNYKNPKLTR[Nle]L[hSer][Yn3(4)]KF[Ygp(4)][Nle]PKKATELKHLQCLEEELKPLEEVL[hSer]LAQSKNFHLRPRDLISNINVIVLELKGSETTF[hSer]CEYADETATIVEFLNRWITFSQSIISTLT
0.76 nM	–	–	CMP-163, MMP2 cleaved molecule (ligand, not fully specified; ends and bridges not checked) APTSSSTKKTQLQLEHLLLDLQKILNGINNYKNPKLTR[Nle]L[hSer][Yn3(4)]KF[Ygp(4)][Nle]PKKATELKHLQCLEEELKPLEEVL[hSer]LAQSKNFHLRPRDLISNINVIVLELKGSETTF[hSer]CEYADETATIVEFLNRWITFSQSIISTLT
–	0.758 nM	–	CMP-162, MMP2 cleaved molecule (ligand, not fully specified; ends and bridges not checked; also: MMP2 cleaved, cleavage site and linker fragment on Lys23 side chain not given here) APTSSSTKKTQLQLEHLLLDLQKILNGINNYKNPKLTR[Nle]L[hSer][Yn3(4)]KF[Ygp(4)][Nle]PKKATELKHLQCLEEELKPLEEVL[hSer]LAQSKNFHLRPRDLISNINVIVLELKGSETTF[hSer]CEYADETATIVEFLNRWITFSQSIISTLT

More lines, now with the values behind:

Binder	Average EC50, pSTAT5 Assay (T cells) (IL-2 receptor βγ complex [1])	Average EC50, pSTAT5 Assay (T cells) (IL-2 receptor βγ complex [2])	Average EC50, pSTAT5 Assay in NK cells (IL-2 receptor βγ complex [3])
CMP-151 (ligand, linker N-23 via cleavable peptide‑PEG9‑glutaryl; reading uncertain) APTSSSTKKTQLQLEHLLLDLQKILNGINNYKNPKLTR[Nle]L[hSer][Yn3″]KF[Ygp″][Nle]PKKATELKHLQCLEEELKPLEEVL[hSer]LAQSKNFHLRPRDLISNINVIVLELKGSETTF[hSer]CEYADETATIVEFLNRWITFSQSIISTLT	–	28.2 nM	2.51 nM
CMP-159, MMP2 cleaved molecule (ligand, not fully specified (bridges); ends and bridges not checked; also: MMP2 cleaved, site not given here) PLGLAGAPTSSSTKKTQLQLEHLLLDLE[Nle]ILNGINNYKNPKLTR[Nle]L[hSer][Yn3(4)]KF[Ygp(4)][Nle]PKKATELKHLQCLEEELKPLEEVL[hSer]LAQSKNFHLRPRDLISNINVIVLELKGSETTF[hSer]CEYADETATIVEFLNRWITFSQSIISTLT	–	2.27 nM	–
CMP-138 (ligand, bridge (positions not given here); not fully specified (bridges); ends not checked) [PEG4′]SGGPGPAGMKGLPGS[PEG4′]APTSSSTKKTQLQLEHLLLDLQ[Nle]ILNGIENYKNPKLTR[Nle]L[hSer][Yn3]KF[Ygp][Nle]PKKATELKHLQCLEEELKPLEEVL[hSer]LAQSKNFHLRPRDLISNINVIVLELKGSETTF[hSer]CEYADETATIVEFLNRWITFSQSIISTLT	–	20.1 nM	1.88 nM
CMP-161, MMP2 cleaved molecule (ligand, not fully specified (bridges); ends and bridges not checked; also: MMP2 cleaved, site not given here) PLGLAGAPTSSSTKKTQLQLEHLLLDLQ[Nle]ILEGINNYKNPKLTR[Nle]L[hSer][Yn3(4)]KF[Ygp(4)][Nle]PKKATELKHLQCLEEELKPLEEVL[hSer]LAQSKNFHLRPRDLISNINVIVLELKGSETTF[hSer]CEYADETATIVEFLNRWITFSQSIISTLT	–	3.59 nM	–
CMP-160 (ligand, bridge N-34; not fully specified (bridges); ends not checked) GPLGLAG[PEG9′]APTSSSTKKTQLQLEHLLLDLQ[Nle]ILEGINNYKNPKLTR[Nle]L[hSer][Yn3(4)]KF[Ygp(4)][Nle]PKKATELKHLQCLEEELKPLEEVL[hSer]LAQSKNFHLRPRDLISNINVIVLELKGSETTF[hSer]CEYADETATIVEFLNRWITFSQSIISTLT	–	27.8 nM	–
CMP-160, MMP2 cleaved molecule (ligand, not fully specified; ends and bridges not checked; also: MMP2 cleaved, cleavage site and linker fragments on N-terminus and Glu26 side chain not given here) APTSSSTKKTQLQLEHLLLDLQ[Nle]ILEGINNYKNPKLTR[Nle]L[hSer][Yn3(4)]KF[Ygp(4)][Nle]PKKATELKHLQCLEEELKPLEEVL[hSer]LAQSKNFHLRPRDLISNINVIVLELKGSETTF[hSer]CEYADETATIVEFLNRWITFSQSIISTLT	–	2.21 nM	–
CMP-161 (ligand, bridge N-32; not fully specified (N-terminus, bridges); ends not checked) PLGLAGAPTSSSTKKTQLQLEHLLLDLQ[Nle]ILEGINNYKNPKLTR[Nle]L[hSer][Yn3(4)]KF[Ygp(4)][Nle]PKKATELKHLQCLEEELKPLEEVL[hSer]LAQSKNFHLRPRDLISNINVIVLELKGSETTF[hSer]CEYADETATIVEFLNRWITFSQSIISTLT	–	29.4 nM	–
CMP-136 (ligand, bridge N-37; not fully specified (bridges); ends not checked) [PEG9′]PLGLAG[PEG9′]APTSSSTKKTQLQLEHLLLDLQ[Nle]ILNGIENYKNPKLTR[Nle]L[hSer][Yn3]KF[Ygp][Nle]PKKATELKHLQCLEEELKPLEEVL[hSer]LAQSKNFHLRPRDLISNINVIVLELKGSETTF[hSer]CEYADETATIVEFLNRWITFSQSIISTLT	–	40.5 nM	2.17 nM
